Data: US20230114801A1 (SYSTIMMUNE, published 2023)
Residue numbers refer to the chain shown, from its start.

B1: SI-9C21 (antibody, human IgG1, kappa, V domains shown)
VH: EVQLVESGGGLVQPGGSLRLSCTASGFTISTNAMSWVRQAPGKGLEWVGVITGRDITYYASWAKGRFTISRDTSKNTVYLQMNSLRAEDTAVYYCARDGGSSAITSNNIWGQGTLVTVSS
VL: EIVMTQSPSTLSASVGDRVIITCQASESISSWLAWYQQKPGKAPKLLIYEASKLASGVPSRFSGSGSGAEFTLTISSLQPDDFATYYCQGYFYFISRTYVNSFGQGTKLTVLR
notes: monoclonal antibody control for the αCD3 domain; also called αCD3 mAb; D3 = αCD3 control
B2: SI-3FS11 (Fc fusion)
chain: EPKSSDKTHTCPPCPAPEAAGAPSVFLFPPKPKDTLMISRTPEVTCVVVDVSHEDPEVKFNWYVDGVEVHNAKTKPREEQYNSTYRVVSVLTVLHQDWLNGKEYKCAVSNKALPAPIEKTISKAKGQPREPQVYTLPPSRDELTKNQVSLTCLVKGFYPSDIAVEWESNGQPENNYKTTPPVLDSDGSFFLYSKLTVDKSRWQQGNVFSCSVMHEALHNHYTQKSLSLSPGGGGGSGGGGSEVQLLESGGGLVQPGGSLRLSCAASGFSFSSGYDMCWVRQAPGKGLEWIACIAAGSAGITYDANWAKGRFTISRDNSKNTLYLQMNSLRAEDTAVYYCARSAFSFDYAMDLWGQGTLVTVSSGGGGSGGGGSGGGGSGGGGSDIQMTQSPSTLSASVGDRVTITCQASQSISSHLNWYQQKPGKAPKLLIYKASTLASGVPSRFSGSGSGTEFTLTISSLQPDDFATYYCQQGYSWGNVDNVFGGGTKVEIK
notes: Fc-scFv control for the αPD-L1 domain; also called SI-3SF11; αPD-L1 Fc-scFv
B3: SI-49R27 (bispecific antibody, human IgG1, kappa, L234A L235A, N297A)
chain 1: EIVMTQSPSTLSASVGDRVIITCQASESISSWLAWYQQKPGKAPKLLIYEASKLASGVPSRFSGSGSGAEFTLTISSLQPDDFATYYCQGYFYFISRTYVNSFGCGTKLTVLGSTGSGSKPGSGEGSTKGEVQLVESGGGLVQPGGSLRLSCTASGFTISTNAMSWVRQAPGKCLEWVGVITGRDITYYASWAKGRFTISRDTSKNTVYLQMNSLRAEDTAVYYCARDGGSSAITSNNIWGQGTLVTVSTGGGGSGGGGSFLNSLFNQEVQIPLTESYCGPCPKNWICYKNNCYQFFDESKNWYESQASCMSQNASLLKVYSKEDQDLLKLVKSYHWMGLVHIPTNGSWQWEDGSILSPNLLTIIEMQKGDCALYASSFKGYIENCSTPNTYICMQRTVASTKGPSVFPLAPSSKSTSGGTAALGCLVKDYFPEPVTVSWNSGALTSGVHTFPAVLQSSGLYSLSSVVTVPSSSLGTQTYICNVNHKPSNTKVDKRVEPKSCDKTHTCPPCPAPEAAGGPSVFLFPPKPKDTLMISRTPEVTCVVVDVSHEDPEVKFNWYVDGVEVHNAKTKPREEQYASTYRVVSVLTVLHQDWLNGKEYKCAVSNKALPAPIEKTISKAKGQPREPQVCTLPPSRDELTKNQVSLSCAVKGFYPSDIAVEWESNGQPENNYKTTPPVLDSDGSFFLVSKLTVDKSRWQQGNVFSCSVMHEALHNHYTQKSLSLSPG
chain 2: not shown
notes: bi-miniGNC; D1 αCD3, D3 NKG2D receptor dimer
B4: SI-38P11 (other)
chain 1: QIVLSQSPAILSASPGEKVTMTCRASSSVSYIHWFQQKPGSSPKPWIYATSNLASGVPVRFSGSGSGTSYSLTISRVEAEDAATYYCQQWTSNPPTFGGGTKLTVLGGGGSGGGGSGGGGSGGGGSQVQLQQPGAELVKPGASVKMSCKASGYTFTSYNMHWVKQTPGRGLEWIGAIYPGNGDTSYNQKFKGKATLTADKSSSTAYMQLSSLTSEDSAVYYCARSTYYGGDWYFNVWGAGTTVTVSSGGGGSGGGGSEVQLVESGGGLVQPGGSLRLSCAASGFTISTNAMSWVRQAPGKGLEWIGVITGRDITYYASWAKGRFTISRDNSKNTLYLQMNSLRAEDTAVYYCARDGGSSAITSNNIWGQGTLVTVSSASTKGPSVFPLAPSSKSTSGGTAALGCLVKDYFPEPVTVSWNSGALTSGVHTFPAVLQSSGLYSLSSVVTVPSSSLGTQTYICNVNHKPSNTKVDKRVEPKSCDKTHTCPPCPAPEAAGGPSVFLFPPKPKDTLMISRTPEVTCVVVDVSHEDPEVKFNWYVDGVEVHNAKTKPREEQYNSTYRVVSVLTVLHQDWLNGKEYKCAVSNKALPAPIEKTISKAKGQPREPQVYTLPPSRDELTKNQVSLSCAVKGFYPSDIAVEWESNGQPENNYKTTPPVLDSDGSFFLVSKLTVDKSRWQQGNVFSCSVMHEALHNHYTQKSLSLSPGGGGGSGGGGSDVVMTQSPSSVSASVGDRVTITCQASQNIRTYLSWYQQKPGKAPKLLIYAAANLASGVPSRFSGSGSGTDFTLTISDLEPGDAATYYCQSTYLGTDYVGGAFGGGTKLTVLGGGGSGGGGSGGGGSGGGGSEVQLVESGGGLVQPGGSLRLSCTASGFTISSYHMQWVRQAPGKGLEYIGTISSGGNVYYASSARGRFTISRPSSKNTVDLQMNSLRAEDTAVYYCARDSGYSDPMWGQGTLVTVSS
chain 2: ENVLTQSPASLSASPGERVTITCSASSSVSYMHWYQQKPGQAPKLWIYDTSKLASGVPSRFSGSGSGNDHTLTISSMEPEDFATYYCFQGSVYPFTFGQGTKVTVLGGGGSGGGGSGGGGSGGGGSQVTLKESGPGLVQPGQTLSLTCAFSGFSLSTSGMGVGWIRQPPGKGLEWLAHIWWDDDKRYNPALKSRLTISKDTSKNQVYLQMNSLDAEDTAVYYCARMELWSYYFDYWGQGTLVTVSSGGGGSGGGGSDVVMTQSPSTLSASVGDRVTINCQASESISSWLAWYQQKPGKAPKLLIYEASKLASGVPSRFSGSGSGTEFTLTISSLQPDDFATYYCQGYFYFISRTYVNSFGGGTKVEIKRTVAAPSVFIFPPSDEQLKSGTASVVCLLNNFYPREAKVQWKVDNALQSGNSQESVTEQDSKDSTYSLSSTLTLSKADYEKHKVYACEVTHQGLSSPVTKSFNRGECGGDKTHTCPPCPAPEAAGGPSVFLFPPKPKDTLMISRTPEVTCVVVDVSHEDPEVKFNWYVDGVEVHNAKTKPREEQYNSTYRVVSVLTVLHQDWLNGKEYKCAVSNKALPAPIEKTISKAKGQPREPQVYTLPPSRDELTKNQVSLWCLVKGFYPSDIAVEWESNGQPENNYKTTPPVLDSDGSFFLYSKLTVDKSRWQQGNVFSCSVMHEALHNRFTQKSLSLSPGGGGGSGGGGSDIQMTQSPSTLSASVGDRVTITCQASQSISSHLNWYQQKPGKAPKLLIYKASTLASGVPSRFSGSGSGTEFTLTISSLQPDDFATYYCQQGYSWGNVDNVFGGGTKVTVLGGGGSGGGGSGGGGSGGGGSEVQLLESGGGLVQPGGSLSLSCAASGFSFSSGYDMCWVRQAPGKGLEWIACIAAGSAGITYDANWAKGRFTISRDNSKNTLYLQMNSLRAEDTAVYYCARSAFSFDYAMDLWGQGTLVTVSS
notes: penta-miniGNC; D1 αCD20 scFv, D2 αCD19, D3 αCD3 Fab without additional disulphide, D4 α4-1BB, D5 αPD-L1 scFv
B5: SI-76PM1 (other)
chain 1: B4 chain 1 with G301C
chain 2: B4 chain 2 with G361C
notes: penta-miniGNC; as SI-38P11 but with an additional disulphide ('staple') in the D3 αCD3 Fab VH/VL
B6: CD19 (receptor, UniProt P15391 20-291, looked up)
chain: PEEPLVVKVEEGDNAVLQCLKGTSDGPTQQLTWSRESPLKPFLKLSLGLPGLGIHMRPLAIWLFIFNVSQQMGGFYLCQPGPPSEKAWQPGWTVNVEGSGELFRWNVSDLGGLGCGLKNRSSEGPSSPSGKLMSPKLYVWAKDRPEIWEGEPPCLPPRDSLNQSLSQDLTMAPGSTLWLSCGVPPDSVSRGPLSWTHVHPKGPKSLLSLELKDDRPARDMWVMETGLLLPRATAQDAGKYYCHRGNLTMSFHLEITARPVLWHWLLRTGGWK
B7: SI-35FS11 (Fc fusion)
chain: EPKSSDKTHTCPPCPAPEAAGAPSVFLFPPKPKDTLMISRTPEVTCVVVDVSHEDPEVKFNWYVDGVEVHNAKTKPREEQYNSTYRVVSVLTVLHQDWLNGKEYKCAVSNKALPAPIEKTISKAKGQPREPQVYTLPPSRDELTKNQVSLTCLVKGFYPSDIAVEWESNGQPENNYKTTPPVLDSDGSFFLYSKLTVDKSRWQQGNVFSCSVMHEALHNHYTQKSLSLSPGGGGGSGGGGSRSLVESGGGLVQPGGSLRLSCTASGFTISSYHMQWVRQAPGKGLEYIGTISSGGNVYYASSARGRFTISRPSSKNTVDLQMNSLRAEDTAVYYCARDSGYSDPMWGQGTLVTVSSGGGGSGGGGSGGGGSGGGGSDVVMTQSPSSVSASVGDRVTITCQASQNIRTYLSWYQQKPGKAPKLLIYAAANLASGVPSRFSGSGSGTDFTLTISDLEPGDAATYYCQSTYLGTDYVGGAFGGGTKVEIK
notes: Fc-scFv control for the α4-1BB domain; also called SI-35SF11; α4-1BB Fc-scFv

What was measured:
human CD3 [1] = molecular target: T1, human CD3 (human, UniProt P07766 23-126; P04234 22-105); test: BLI (Octet), unstapled control mAb or Fc-scFv
T1 construct: also called His-tagged human CD3; human CD3 (Acro CDD-H52W1)

human PD-L1 [2] = molecular target: T2, human PD-L1 (human, UniProt Q9NZQ7 19-238); test: BLI (Octet), unstapled control mAb or Fc-scFv
T2 construct: Soluble antigen in Octet; bought; also called human PD-L1 (Acro PD1-H5229)

human CD3 [3] = molecular target: T1, human CD3; test: BLI (Octet); conditions not stated
NKG2D ligand = test: BLI (Octet); conditions and ligand not stated
human CD3 [4] = molecular target: T1, human CD3; test: antigen binding kinetics; method not given
human 4-1BB [5] = molecular target: T3, human 4-1BB (human, UniProt Q07011 24-186, limits assumed); test: antigen binding kinetics; method not given
T3 construct: Soluble antigen in Octet; construct not described

human PD-L1 [6] = molecular target: T2, human PD-L1; test: antigen binding kinetics; method not given
CD19 = molecular target: B6; test: antigen binding kinetics; method not given
SI-49P9 = molecular target: T4, SI-49P9; test: BLI (Octet); conditions not stated
T4 construct: penta-miniGNC; D1 αCD3, D2 αCD19, D3 NKG2D receptor dimer, D4 41BBL, D5 αPD-L1
T4 sequence (chain, as listed by the source): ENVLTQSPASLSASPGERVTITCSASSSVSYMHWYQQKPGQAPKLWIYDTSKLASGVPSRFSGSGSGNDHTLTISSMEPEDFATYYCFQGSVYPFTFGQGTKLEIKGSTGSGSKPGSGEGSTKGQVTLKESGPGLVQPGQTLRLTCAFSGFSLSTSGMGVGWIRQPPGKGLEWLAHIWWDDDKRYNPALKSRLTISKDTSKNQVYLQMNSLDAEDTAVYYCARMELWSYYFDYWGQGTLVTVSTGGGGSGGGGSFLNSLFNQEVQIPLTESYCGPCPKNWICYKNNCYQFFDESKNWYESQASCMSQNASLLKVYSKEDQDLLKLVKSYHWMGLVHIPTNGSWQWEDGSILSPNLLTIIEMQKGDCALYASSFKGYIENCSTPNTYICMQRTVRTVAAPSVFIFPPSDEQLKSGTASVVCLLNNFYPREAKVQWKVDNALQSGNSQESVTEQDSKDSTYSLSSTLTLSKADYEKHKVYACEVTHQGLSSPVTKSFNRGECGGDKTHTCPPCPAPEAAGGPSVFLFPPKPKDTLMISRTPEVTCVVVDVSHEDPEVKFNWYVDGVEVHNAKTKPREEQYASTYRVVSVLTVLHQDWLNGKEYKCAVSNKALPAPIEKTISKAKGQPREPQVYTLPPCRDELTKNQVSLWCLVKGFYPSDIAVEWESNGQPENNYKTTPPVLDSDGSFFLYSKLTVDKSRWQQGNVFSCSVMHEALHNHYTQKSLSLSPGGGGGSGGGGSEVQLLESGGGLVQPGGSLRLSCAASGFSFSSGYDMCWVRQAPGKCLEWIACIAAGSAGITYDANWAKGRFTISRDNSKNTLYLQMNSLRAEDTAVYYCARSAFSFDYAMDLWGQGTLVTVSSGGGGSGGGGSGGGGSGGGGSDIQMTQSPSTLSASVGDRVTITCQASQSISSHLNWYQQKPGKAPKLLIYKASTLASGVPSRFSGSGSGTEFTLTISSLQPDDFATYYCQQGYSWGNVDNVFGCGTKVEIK

human 4-1BB [7] = molecular target: T3, human 4-1BB; test: BLI (Octet), unstapled control mAb or Fc-scFv

Binder: B1
Kd (human CD3 [1]): 26.3 nM

Binder: B2
Kd (human PD-L1 [2]): 0.94 nM

Binder: B3
Kd (human CD3 [3]): 32.2 nM | Kd (NKG2D ligand): 16 nM

Binder: B4
Kd (human CD3 [4]): 5.23 nM | Kd (human 4-1BB [5]): 14.8 nM | Kd (human PD-L1 [6]): 1.1 nM | Kd (CD19): 1.89 nM

Binder: B5
Kd (human CD3 [4]): 3.22 nM | Kd (human 4-1BB [5]): 22.4 nM | Kd (human PD-L1 [6]): 1.47 nM | Kd (CD19): 3.3 nM

Binder: B6
Kd (SI-49P9): 6.4 nM

Binder: B7
Kd (human 4-1BB [7]): 14.9 nM
